Results reported in paper PMC5695864.

How the values were obtained:
[1] = target: core-fucosylated RNase B (21) (bovine) (UniProt P61823); assay: ELISA
[2] = target: S2G2F-rituximab (30), core-fucosylated sialyl complex type glycoform of rituximab (human); assay: ELISA

Sequence of UniProt P61823 (P61823 27-150): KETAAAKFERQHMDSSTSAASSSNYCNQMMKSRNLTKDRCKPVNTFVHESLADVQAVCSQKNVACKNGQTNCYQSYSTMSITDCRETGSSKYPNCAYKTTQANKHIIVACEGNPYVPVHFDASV

Row | EC50 [1] [µM] | EC50 [2] [µM] | Molecule
1 | 275 |  | Aleuria aurantia lectin (AAL) (from UniProt P18891 1-313) (natural protein)
2 |  | 15 | Aleuria aurantia lectin (AAL) (natural protein, biotin (AAL-biotin)) MPTEFLYTSKIAAISWAATGGRQQRVYFQDLNGKIREAQRGGDNPWTGGSSQNVIGEAKLFSPLAAVTWKSAQGIQIRVYCVNKDNILSEFVYDGSKWITGQLGSVGVKVGSNSKLAALQWGGSESAPPNIRVYYQKSNGSGSSIHEYVWSGKWTAGASFGSTVPGTGIGATAIGPGRLRIYYQATDNKIREHCWDSNSWYVGGFSASASAGVSIAAISWGSTPNIRVYWQKGREELYEAAYGGSWNTPGQIKDASRPTPSLPDTFIAANSSGNIDISVFFQASGVSLQQWQWISGKGWSIGAVVPTGTPAGW
